Measured values: article PMC7815104

Target: recombinant soluble canine IL-10 receptor alpha chain (R1), extra-cytoplasmic domain (canine)
Assay: SPR; rcasIL-10R1 covalently immobilised (EDC/NHS) on a CM5 chip to 1000 RU, Biacore T100; cytokines in PBS with 0.05% Tween 20 applied for 2 min 30 s; each sample evaluated twice, mean ± SD of RU

Substance: recombinant canine IL-10 (from UniProt P48411 20-181) (ligand)
- RU at 31.2 ng/mL: 211 RU
- RU at 125 ng/mL (plateau): 1720 RU
- binding equilibrium constant (EC80): 51.4 nM
